Results published in article PMC7873571.

Molecular target: Gli1 (from hisSUMO-Gli1, Addgene 87225, His-SUMO tag cleaved) (UniProt P08151 234-388)
Experiment: SPR

Gli1 (from hisSUMO-Gli1, Addgene 87225, His-SUMO tag cleaved), sequence (P08151 234-388): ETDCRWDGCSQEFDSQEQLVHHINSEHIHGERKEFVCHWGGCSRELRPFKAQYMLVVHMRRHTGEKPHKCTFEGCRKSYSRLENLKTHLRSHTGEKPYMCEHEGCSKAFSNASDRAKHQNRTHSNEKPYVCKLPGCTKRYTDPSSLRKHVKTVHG

B1: biotinylated GLI1 consensus dsDNA (SPR) (dsDNA)
DNA 1: ACGTGGACCACCCAAGACGAA
DNA 2: TTTCGTCTTGGGTGGTCCACGT
B1: binds.
